According to patent US20140087995A1 (published 2014):
Numbered stars: 1 amine (or outer) side, 2 acyl side, 3 side chain; on linkers, the order of the positions; unused ones are H or OH. Bridge positions count the residues as written; N and C are the ends. * marks the point of attachment. C20 diacid = O=C(O)CCCCCCCCCCCCCCCCCCC(=O)*; γGlu = O=C(O)[C@H](CCC(=O)[*:2])N[*:1]

T1: human amylin receptor (human, UniProt P30988 25-474; O60896 24-148, limits assumed)
T1 construct: whole, on cells; Calcitonin receptor plus RAMP-3 gives the amylin 3(a) receptor; membranes of Amylin 3(a)/CRE-luc cells were used; also called hAmylin-R; hAmylinR
T1 sequence (looked up) 1: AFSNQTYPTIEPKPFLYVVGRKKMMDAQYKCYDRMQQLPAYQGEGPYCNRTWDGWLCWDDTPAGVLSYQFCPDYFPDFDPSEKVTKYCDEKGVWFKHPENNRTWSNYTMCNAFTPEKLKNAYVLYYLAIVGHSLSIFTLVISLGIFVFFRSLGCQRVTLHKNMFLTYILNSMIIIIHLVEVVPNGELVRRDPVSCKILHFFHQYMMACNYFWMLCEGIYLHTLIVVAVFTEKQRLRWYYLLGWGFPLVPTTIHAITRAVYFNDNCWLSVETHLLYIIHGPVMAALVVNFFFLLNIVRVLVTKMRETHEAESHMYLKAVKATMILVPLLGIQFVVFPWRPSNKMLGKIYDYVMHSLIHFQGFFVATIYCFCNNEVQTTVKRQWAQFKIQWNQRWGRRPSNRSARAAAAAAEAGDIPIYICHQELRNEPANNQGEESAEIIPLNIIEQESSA
T1 sequence (looked up) 2: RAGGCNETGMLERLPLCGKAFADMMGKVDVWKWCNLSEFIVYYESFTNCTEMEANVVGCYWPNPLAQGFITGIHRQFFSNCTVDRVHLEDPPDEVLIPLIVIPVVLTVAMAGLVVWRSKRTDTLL


Molecular target: T1, human amylin receptor
Experiment: SPA competition binding, displacement of 125I-rat amylin from membranes with human amylin 3(a) receptor (Assay V)
Procedure, shortened: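 One-site competition analysis of SPA counts yielded IC₅₀ as a measure of affinity. Membranes were at 35 ng/μL final; incubation was 120 min at 25° C, pH 7.4.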

IC50 [pM]	Binder
344	{C20 diacid-γGlu}-GRCNTATCATQRLANFLRHSSPNFGAIPSSTNVGSHTY-NH2 (disulfide 3-8; SMILES CC[C@H](C)[C@H](NC(=O)[C@H](C)NC(=O)CNC(=O)[C@H](Cc1ccccc1)NC(=O)[C@H](CC(N)=O)NC(=O)[C@@H]1CCCN1C(=O)[C@H](CO)NC(=O)[C@H](CO)NC(=O)[C@H](Cc1c[nH]cn1)NC(=O)[C@H](CCCNC(=N)N)NC(=O)[C@H](CC(C)C)NC(=O)[C@H](Cc1ccccc1)NC(=O)[C@H](CC(N)=O)NC(=O)[C@H](C)NC(=O)[C@H](CC(C)C)NC(=O)[C@H](CCCNC(=N)N)NC(=O)[C@H](CCC(N)=O)NC(=O)[C@@H](NC(=O)[C@H](C)NC(=O)[C@@H]1CSSC[C@H](NC(=O)[C@H](CCCNC(=N)N)NC(=O)CNC(=O)CC[C@H](NC(=O)CCCCCCCCCCCCCCCCCCC(=O)O)C(=O)O)C(=O)N[C@@H](CC(N)=O)C(=O)N[C@@H]([C@@H](C)O)C(=O)N[C@@H](C)C(=O)N[C@@H]([C@@H](C)O)C(=O)N1)[C@@H](C)O)C(=O)N1CCC[C@H]1C(=O)N[C@@H](CO)C(=O)N[C@@H](CO)C(=O)N[C@H](C(=O)N[C@@H](CC(N)=O)C(=O)N[C@H](C(=O)NCC(=O)N[C@@H](CO)C(=O)N[C@@H](Cc1c[nH]cn1)C(=O)N[C@H](C(=O)N[C@@H](Cc1ccc(O)cc1)C(N)=O)[C@@H](C)O)C(C)C)[C@@H](C)O, also called -1G, 1R, 17R, 21P, 27P, 35H)
217	{C20 diacid-γGlu}-GRCNTATCATQRLAHFLRHSSPNFGAIPSSTNVGPNTY-NH2 (disulfide 3-8; SMILES CC[C@H](C)[C@H](NC(=O)[C@H](C)NC(=O)CNC(=O)[C@H](Cc1ccccc1)NC(=O)[C@H](CC(N)=O)NC(=O)[C@@H]1CCCN1C(=O)[C@H](CO)NC(=O)[C@H](CO)NC(=O)[C@H](Cc1c[nH]cn1)NC(=O)[C@H](CCCNC(=N)N)NC(=O)[C@H](CC(C)C)NC(=O)[C@H](Cc1ccccc1)NC(=O)[C@H](Cc1c[nH]cn1)NC(=O)[C@H](C)NC(=O)[C@H](CC(C)C)NC(=O)[C@H](CCCNC(=N)N)NC(=O)[C@H](CCC(N)=O)NC(=O)[C@@H](NC(=O)[C@H](C)NC(=O)[C@@H]1CSSC[C@H](NC(=O)[C@H](CCCNC(=N)N)NC(=O)CNC(=O)CC[C@H](NC(=O)CCCCCCCCCCCCCCCCCCC(=O)O)C(=O)O)C(=O)N[C@@H](CC(N)=O)C(=O)N[C@@H]([C@@H](C)O)C(=O)N[C@@H](C)C(=O)N[C@@H]([C@@H](C)O)C(=O)N1)[C@@H](C)O)C(=O)N1CCC[C@H]1C(=O)N[C@@H](CO)C(=O)N[C@@H](CO)C(=O)N[C@H](C(=O)N[C@@H](CC(N)=O)C(=O)N[C@H](C(=O)NCC(=O)N1CCC[C@H]1C(=O)N[C@@H](CC(N)=O)C(=O)N[C@H](C(=O)N[C@@H](Cc1ccc(O)cc1)C(N)=O)[C@@H](C)O)C(C)C)[C@@H](C)O, also called -1G, 1R, 14H, 17R, 21P, 27P, 34P)
